Results taken from the DeepSol protein solubility set.

Assay: soluble on expression in E. coli; label from the status in PepcDB or PDB records

Sequence	soluble on expression in E. coli
MRVLVTGGAGFIGSHIVEDLLARGLEVAVLDNLATGKRENVPKGVPFFRVDLRDKEGVERAFREFRPTHVSHQAAQASVKVSVEDPVLDFEVNLLGGLNLLEACRQYGVEKLVFASTGGAIYGEVPEGERAEETWPPRPKSPYAASKAAFEHYLSVYGQSYGLKWVSLRYGNVYGPRQDPHGEAGVVAIFAERVLKGLPVTLYARKTPGDEGCVRDYVYVGDVAEAHALALFSLEGIYNVGTGEGHTTREVLMAVAEAAGKAPEVQPAPPRPGDLERSVLSPLKLMAHGWRPKVGFQEGIRLTVDHFRGAV	soluble
MRAKKRKFLQKEELSKLLQSLDMSQIGFGWFVMLVAKTGMRYAEALAITPADFDWTAQTISINKTWDYKYNKGFAKTKTLSSVRTIKIDWQIVGQFKPLIKDFPEDEPIFVEKFGDGTYKRQFNSTINNFLAVKCNETGITQISFHALRHTHASVLLAEGVSIHTISARLGHADVGVTQETYALEHHHHHH	soluble
MGSDKIHHHHHHMKFTPELESGVLIKRYKRFLADIMLPNGQEITIHCPNTGSMKNCLFPGEKVWFSTSDNPKRKYAHTWELMQTDQQHYIGINTGRANALAEEAINRQVITELLGYEHLKREVKYGSENSRIDILLTSQNRPECYIEVKSCTLLEDQMGYFPDAVTTRGQKHLRELIHMVELGHRAVLLFVVQHSAITSVKPARHIDPHYADLLEQAVANGVEVLAYKTALSPQGSLITSACKVML	not soluble
MDTDAIRSEIFGQLARPDNSGIPKYRRLSNILVEAIRRGVWQPGDRLPAEEQLTEMTPFSLGTVQRALRALTDEGLVIRMQGHGNFVADQQRQMADPWHCRFLDDESDGIVPIYSKAVQRAVVTPSETGPWQRYLHSGSVMRLDRIINVNDEFRIFSRFYADRELLQPLWHVPLEELDGANFKDIIMRQVGLPITEIDRSVRIRRIDAQAARLIGVAPEATVLFMQAVARAGRDACIYYQEFYIPETGRALQLPEQRPRVHGR	not soluble
GPGSMLEEVLKCYEEMKDPAAHQLAEAALPKLMEALGEESENSVMEVMLRCIGRCVSVHPAIMSPTNTALVCDKVMAALEVVVKRRNECLQKKATENDEDELDALEVEDEEVHLTISSMCDLIGTLLAASKEVFAAPFLEKAFPVLGEWLQASTDDFYMTRAAGILSDFVTHAPQSIVPSLPQICASSLTIASSSSDDGLLQSDFYLMNVIVQLLGSHATTNMGVDGGEYAVHVQQVAEKYFSSNLVNQEEYTHCTCNVISLYVSLLNFYGTTVLQQAATSMLTVVGKALPAKDDEIEARRIHDVVLGWVTNNHPVLQALPGSTAGFLTCVKAASPNCLSEQAKQYLASM	soluble
MLEGVVRRREGPDYTVRIKPVARSRILTLPDAPERSSPVIVGIDPGITTGLAVLDINGRLLHAESSKSLDRSRVTEIVYGLGRPVIVAVDVADPPETAKKLAAQWGAMLYTPPADLTTSEKWGLARRVLGSSVEDTHVRDLEHHHHHH	not soluble
IGKVKLSARGTFTYARNKIVEYDELPQRYPWMAQTGMRINENYLYIAERLYTKEDFIVSKNGSGIETYTLRSELPQSTLGGLLGPGDIKYKDINGDGIIDSYDKVRGVGHPKVPEIVYGFGLNIEYKGFYASAFFQGAGNCSVLLGGNTPEGWFPFSWGVDQSNYRTFALDRWTEKNPSQNVLMPRLHKDNTNAANNSVASTWWLRNGGFLRLKNVELGYQLPKKLLSKINLQAARIYLMGYNIALWDDLKYFDPEAGNANGGNTYPKARTFTLGIDFTF	not soluble
MSLTVIITGASSGIGAGLAKSFAADGHLVIACGRDASRLAALQQLSPNISVRLFDMTDRDACRQALTGCFADLIILCAGTCEYLDHGQVDAALVERVMATNFLGPVNCLAALQTQLEAGDRVVLVSSMAHWLPFPRAEAYGASKAALTWFANSLRLDWEPKGVAVTVVSPGFVDTPLTRKNDFAMPGRVSVDRAVAAIRHGLAKGKNHIAFPTGFSLALRLLASLPSGIQRLLLRRMVRSEGHHHHHH	soluble
WLFFRYMAIGGYVGAATVGAAAW	soluble
MRCMSDDHTHVQEFFEARAADWDSRFPDDGPAHAAAVAELGLREGDRVLDAGCGTGRALPSLRAAVGSSGVVVGVDLTPAMLAAAARAGRGRDGHLLLADVTRLPLGTESLDAVFAAGLIAHLPEPAENLRELARVVRAGGTLALFHPIGRAALAARQGRQITPDDLRAEANLGPLLAGSGWRMTSYVDEDARFLALAVRVKLEHHHHHH	not soluble
MALVVEDIVKNFGEGLSETKVLKGINFEVEQGEFVILNGASGSGKTTLLTILGGLLSQTSGTVLYNDAPLFDKQHRPSDLRLEDIGFIFQSSHLVPYLKVIEQLTLVGQEAGMTKQQSSTRAIQLLKNIGLEDRLNVYPHQLSGGEKQRVAIMRAFMNNPKIILADEPTASLDADRATKVVEMIRQQIKEQQMIGIMITHDRRLFEYADRVIELEDGKITD	not soluble
MMKPSVSAAILAAGTSTRMNEMKQLAKIQGTYMLKYVIDQVSNHPFQHIFVIVGHQADIVMKMIQVEDKRVQWLVNDQYKQGQSTSFKLAMEQARQYGDAVMMFLADQPLIEKETVNIVLNEGITRVQEEPFIVRPMYEKKEGHPVYWGNIHALDCSAVNGDKGGKTLMEELERMLIPVHDQGVLVDVDTCEDYKKVNDLMKRKSPSTHLEHHHHHH	not soluble
MGVKVASSSTFLQWTTQPIIHQSSSPSQTLASGTITSPSKRRSTVHDGRFLSCRFVTQRLNRSALFGTPSTKLHRPKSCELWKSSSSSSRPIKTQSFRRVYSANLDPFSDEEFSKKIQELTLRFNIPHHDDDENSIEPPWNEMVHLSSIEMKANSVDLPLSLRIIKKKRQWEEGVKQAGESACCSMNKAFSSMVFMIRELQSFTLHMREILFYEDLQEILLRVREEMQQSFVWLFQQVFSATPTLMVYVMILLANFTVYSIGNNSSALAAVAPLPPTITELTTVSETEETNVKFDSSVVKTFFVSSPSGSIASVGGNNNGGGGNVKPVLSGTDGDGSDGSEQFRTIIPEGVSQLSSSNFGSEPSVSGQDEHRLWNSMVEEAERMQYSNIDDSLDQETRKRFVSHVEARVEAEEDTGYFKTELMYQTELSQEPNNPLLLANYAQFLYLVSNDHDRAEEYFKRAVGVEPKDAEAFSKYATFLWRARDDLWAAEETFLEAIDADPTNSYYAANYANFLWNTGGDDTCFPLDDESHEDTI	not soluble
MTATSNSAPLAGGSLSSSATAQPPQPPPGHQQQHPLPQIYDSQMQYYYGSSMPNQPIPTYTAQNGAPQQFGTPPYYQDANGQFGQVPAQQQMMTAGHPYFYMAQPQQGGQHVAQSGQPQIFYYQQPLGQMAQQAAPMYFHPMQAASTPMLSEQMSMMPQIQSTNPQQSEQLRKSGAQISTTRTVPLTSSTPLPTSREYETVQRDRNRNSQSRYQCPIEHDDLPIDEISKITIDNHNDDTMSAEKENRFNKNRVEKLGRRGFAKPEVDSQLPHNFKTRLCMTHAAGINPCALGARCKFAHGLKELRASDIPTRYPNNKYKTKLCKNFARGGSGVCPYGLRCEFVHPSDTEFQNIPPYQRKMVEEHDSIPEDYVVARYQPRFMHTSGKATTPTKVTLKQRNVAGSMMCLSNTGRDLEAGGDFNHPEINENDLPPHLRRIRRGNPPVTRSRPSFSTKWTSVENLGLRGHY	not soluble
MKNAVHFGAGNIGRGFIGKLLADAEVEVTFADVDVPLVDQLSHKQEYKVKVVGTECKIDTVTHVTAVNSASEDVIDRIVKTDLVTTAVGPNVLDIIAKTIAKGIAKRFEAGNDAPLNIIACENMVRGTTHLKGEVYKHLDKSLHAKADELVGFVDSAVDRIVPPAEAANDDPLEVTVESFSEWIVDEQQFKGDIPNIAGMEKTNNLMAFVERKLFTLNTGHCITAYLGCLKGHRTIREAIEDPNIHAEVKQAMQESGEVLIRRYGFDHDMHNAYIEKILGRFANPYLVDEVDRVGRQPIRKLGANDRLVKPLLGTIEYGTENQTLLKGIAAALKYTNDTDPQAVELQTSLKEVGVTKTLAKYTGLAEDSDEVAQIETLYNQL	not soluble
ALMGGIVDVEGAQNSAEVEELARFAVDEHNKKENALLQFSRLVKAKQQVVSGIMHHLTVEVIEGGKKKVYEAKVWVQAWLNSKKLHEFSPI	soluble
MSLRKEFPLMNRLKELRKEKNITLVELSEELGIPRSTLNRYENEDSEPKQETWEKLADYYGVSTAYLMGISNQKVSEEKALTAAKKVYQVYLSDDDLGKEIRKALMYFNKNDLDSVLKQAMQQYFTIPAVEWNTEFQSLKNTGFLYSWLEGYLVDRYRKEVKTNHNLITNTYYSIPSIDDVNEYGIFSDEIQIPLTEDFKQIFKVEDLSTKTHEEIKKLFKSDSTLIAYSYESSVDDKLKDDINMILDNARSEILNLKEKYPDKPSRIEQTTVLISKDEDTSFWSRNGSNDYIDELNLSEETKKLFVHLGSVFIEEKKRKSKAKEEGGSHHHHHH	soluble
MKKLMITQEAGVATVLIKNPPVNILTIDLINELNAFILSLKDDRETKVVVFKSFHEAFFIAHLDLNVINGTSGGQAASIEFNHMIANIKAMKQLSIAVVDGVARGGGNEFVMACDLAYGTENSAFAQPELYINIPTGGQGAVQFARRLGKGKALQALLTGADFTAQQAETLNIITQFVLKAELDVFLAQLLSVIVGWEIRDIVMYKEIIAASIKDEAVGTELELRYFLERAREEKTQTIIAAFLKH	soluble
MGSDKIHHHHHHMRRDVFIETRNVMDFRQKVRALEDFSGEPGFALVFGQAGRGKTETARHYHAMNGGIFLRVMQGWSQCAFLQELCFQVCGLRPRSSATCKAKIIEALDSMPQTLFVDEADRLHVDRVEDLRDVFDLTSSTVVLIGEQELRGLLSTRRRIWSRVKQVVEFGPVAEEDVAILGDEAAGLDIAPEACSQIVRLADGDFRLVWSFIHQLELTAKTHGIQQINTELVARVSKLVASWRQQ	not soluble
MDPSENVFKYETAYDLLVRLGAERLFLRTCLSILDPVLELHPGKCYEIDGDLGVGKTQICYSFAAKFLQTKKTAKMGWIGATPLRTDHLLLHIEHFGNQTNEDILDRIVCKRVEKIAELQDSLTRFLDTINLQLVIVENIDAILHDTVYHKEMGRSMQSDVVERIRKLTKLEITVILTNHITHWRGYPAPALGAFWSSQINNRFFIEKRNDDSDIRIVSAMKGEQDDGMNRIEFKIGDRGLKAVE	not soluble
MENPINELAAAVHDGLGLTYPPIIDMGPQLTREQLLASMSATMRRHKGGPVWLFAYGSLIWRPECTAVESQRGRVHGYHRGLYLWSHEHRGTPEVPGLVFGLDRGGSCTGFAYRLPDDCLEKSLLALWEREMPYPSYRPHWLNCRLEDGRKVQALGFVLERHLPSYAGNLPDSVLSQVLASASGRYGTTRDYVEQTAKALRSHAMPDLNLEARLKRCKSETAAAALEHHHHHH	not soluble
MGSDKIHHHHHHEEYFNAIRTNIQLSGVDIKVVGITSVKSNEGKSTTAASLAIAYARSGYKTVLVDADIRNSVMPGFFKPMTKITGLTDYLAGTTDLSQGLCDTDIPNLTVIESGKVSPNPTALLQSKSFENLLATLRRYYDYVIVDCPPLGLVIDAAIIAQKCDAMVAVVEAGNVKCSSLKKVKEQLEQTGTPFLGVILNKYDIATEKYGEYGNYGKKA	not soluble
MGSDKIHHHHHHMEATTNNMKDVTGAELLICTIGHSTHPLEEFINLLKKNEVTHLLDVRTVPRSRHNPQFNKETLPDALGAIGIKYTHLSGLGGLRHARKDSINEGWRNASFRGYADYMQTQEFVENVNRVIELAAHDRCALMCAEAVPWRCHRSLIADALVVRGVRVEDIIDNHGRKPHSLTPWAQAEGVRIFYPAQQGRLI	not soluble
